Patent publication US4701455A, “Biopterin analogs” (Burroughs Wellcome Co., priority 1983, dated 1987)

Test system: C[C@H](O)[C@H](O)[C@H]1CNc2nc(N)[nH]c(=O)c2N1
Assay: purified protein, by the assay type
Conditions: other: Km of substrate (tyrosine) with the pterin as cofactor

Chain of Tyrosine hydroxylase (Homo sapiens) (chain, as listed by the source): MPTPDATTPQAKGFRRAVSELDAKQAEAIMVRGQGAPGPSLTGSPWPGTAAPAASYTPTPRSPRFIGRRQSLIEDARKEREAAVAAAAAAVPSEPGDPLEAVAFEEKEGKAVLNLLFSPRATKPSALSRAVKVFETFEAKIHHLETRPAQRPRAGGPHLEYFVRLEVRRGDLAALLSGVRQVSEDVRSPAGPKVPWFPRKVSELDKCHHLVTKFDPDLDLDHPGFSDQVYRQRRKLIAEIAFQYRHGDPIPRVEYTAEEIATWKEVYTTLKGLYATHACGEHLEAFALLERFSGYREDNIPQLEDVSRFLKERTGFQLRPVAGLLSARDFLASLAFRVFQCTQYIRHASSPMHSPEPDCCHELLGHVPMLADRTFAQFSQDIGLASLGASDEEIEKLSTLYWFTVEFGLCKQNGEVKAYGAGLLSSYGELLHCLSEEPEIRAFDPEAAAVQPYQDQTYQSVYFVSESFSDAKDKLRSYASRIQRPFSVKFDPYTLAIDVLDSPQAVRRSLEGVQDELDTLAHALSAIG

## Tyrosine hydroxylase (Homo sapiens)
  Km: 16.0 µM
